This is an account of results in the Human Domainome abundance scans (Beltran et al. 2025).

± gives the uncertainty stated by the source.

The chains are these.
B1: Histone H1t, residues 44 to 112; numbered along this chain, P22492 (parent)
chain: VSKLITEALSVSQERVGMSLVALKKALAAAGYDVEKNNSRIKLSLKSLVNKGILVQTRGTGASGSFKLS

This data set covers variants of B1. Put plainly: abundance fitness (aPCA) (normalised: wild type 0, dead -1); higher = more abundant; growth selection in yeast, the domain comes from the species named. The settings on record: Homo sapiens.
In the case of VSKLITEALSVSQERVGMSLVALKKALAAAGYDVEKNNSRIKLNLKSLVNKGILVQTRGTGASGSFKLS [S44N], the abundance fitness is -0.148 ± 0.043. The result for VSKLITEALSVSQERVGMSLVALKKALAAAGYDVEKNNSRIKLHLKSLVNKGILVQTRGTGASGSFKLS [S44H] reads -0.126 ± 0.044; that for VSKLITEALSVSQERVGMSLVALKKALAAAGYDVEKNNSRIKLVLKSLVNKGILVQTRGTGASGSFKLS [S44V], 0.16 ± 0.23; that for VSKLITEALSVSQERVGMSLVALKKALAAAGYDVEKNNSRIKLYLKSLVNKGILVQTRGTGASGSFKLS [S44Y], -0.279 ± 0.072. On to VSKLITEALSVSQERVGMSLVALKKALAAAGYDVEKNNSRIKLALKSLVNKGILVQTRGTGASGSFKLS [S44A], for which the abundance fitness is 0.324 ± 0.2. The result for VSKLITEALSVSQERVGMSLVALKKALAAAGYDVEKNNSRIKLILKSLVNKGILVQTRGTGASGSFKLS [S44I] reads -0.239 ± 0.072; that for VSKLITEALSVSQERVGMSLVALKKALAAAGYDVEKNNSRIKLMLKSLVNKGILVQTRGTGASGSFKLS [S44M], -0.047 ± 0.065. Take VSKLITEALSVSQERVGMSLVALKKALAAAGYDVEKNNSRIKLTLKSLVNKGILVQTRGTGASGSFKLS [S44T]: the abundance fitness was determined as 0.081 ± 0.036.

Take VSKLITEALSVSQERVGMSLVALKKALAAAGYDVEKNNSRIKLPLKSLVNKGILVQTRGTGASGSFKLS [S44P]: the abundance fitness is -0.636 ± 0.046.

Regarding VSKLITEALSVSQERVGMSLVALKKALAAAGYDVEKNNSRIKLFLKSLVNKGILVQTRGTGASGSFKLS [S44F], the abundance fitness is -0.298 ± 0.098. As for VSKLITEALSVSQERVGMSLVALKKALAAAGYDVEKNNSRIKLLLKSLVNKGILVQTRGTGASGSFKLS [S44L], the figure is -0.108 ± 0.055; as for VSKLITEALSVSQERVGMSLVALKKALAAAGYDVEKNNSRIKLQLKSLVNKGILVQTRGTGASGSFKLS [S44Q], -0.072 ± 0.046; as for VSKLITEALSVSQERVGMSLVALKKALAAAGYDVEKNNSRIKLWLKSLVNKGILVQTRGTGASGSFKLS [S44W], -0.426 ± 0.24. As for VSKLITEALSVSQERVGMSLVALKKALAAAGYDVEKNNSRIKLELKSLVNKGILVQTRGTGASGSFKLS [S44E], the abundance fitness was found to be 0.175 ± 0.29.

For VSKLITEALSVSQERVGMSLVALKKALAAAGYDVEKNNSRIKLCLKSLVNKGILVQTRGTGASGSFKLS [S44C], the abundance fitness worked out at 0.217 ± 0.18.

For the variant VSKLITEALSVSQERVGMSLVALKKALAAAGYDVEKNNSRIKLRLKSLVNKGILVQTRGTGASGSFKLS [S44R], the abundance fitness was -0.173 ± 0.12. As for VSKLITEALSVSQERVGMSLVALKKALAAAGYDVEKNNSRIKLSLKALVNKGILVQTRGTGASGSFKLS [S47A], the figure is -0.049 ± 0.045; as for VSKLITEALSVSQERVGMSLVALKKALAAAGYDVEKNNSRIKLSLKCLVNKGILVQTRGTGASGSFKLS [S47C], 0.036 ± 0.16.

For VSKLITEALSVSQERVGMSLVALKKALAAAGYDVEKNNSRIKPSLKSLVNKGILVQTRGTGASGSFKLS [L43P], the abundance fitness was -0.483 ± 0.033. The result for VSKLITEALSVSQERVGMSLVALKKALAAAGYDVEKNNSRIKGSLKSLVNKGILVQTRGTGASGSFKLS [L43G] reads -0.061 ± 0.036; that for VSKLITEALSVSQERVGMSLVALKKALAAAGYDVEKNNSRIKQSLKSLVNKGILVQTRGTGASGSFKLS [L43Q], 0.172 ± 0.027.

With VSKLITEALSVSQERVGMSLVALKKALAAAGYDVEKNNSRIKESLKSLVNKGILVQTRGTGASGSFKLS [L43E], the abundance fitness amounted to 0.229 ± 0.035.

With VSKLITEALSVSQERVGMSLVALKKALAAAGYDVEKNNSRIKASLKSLVNKGILVQTRGTGASGSFKLS [L43A], the abundance fitness is 0.18 ± 0.032. As for VSKLITEALSVSQERVGMSLVALKKALAAAGYDVEKNNSRIKDSLKSLVNKGILVQTRGTGASGSFKLS [L43D], the figure is 0.036 ± 0.13; as for VSKLITEALSVSQERVGMSLVALKKALAAAGYDVEKNNSRIKKSLKSLVNKGILVQTRGTGASGSFKLS [L43K], 0.181 ± 0.026.

Regarding VSKLITEALSVSQERVGMSLVALKKALAAAGYDVEKNNSRIKRSLKSLVNKGILVQTRGTGASGSFKLS [L43R], the abundance fitness is 0.049 ± 0.032. As for VSKLITEALSVSQERVGMSLVALKKALAAAGYDVEKNNSRIKVSLKSLVNKGILVQTRGTGASGSFKLS [L43V], the figure is -0.617 ± 0.38. The result for VSKLITEALSVSQERVGMSLVALKKALAAAGYDVEKNNSRIKNSLKSLVNKGILVQTRGTGASGSFKLS [L43N] reads 0.266 ± 0.044; that for VSKLITEALSVSQERVGMSLVALKKALAAAGYDVEKNNSRIKHSLKSLVNKGILVQTRGTGASGSFKLS [L43H], 0.015 ± 0.043. The result for VSKLITEALSVSQERVGMSLVALKKALAAAGYDVEKNNSRIKSSLKSLVNKGILVQTRGTGASGSFKLS [L43S] reads 0.034 ± 0.088; that for VSKLITEALSVSQERVGMSLVALKKALAAAGYDVEKNNSRIKLSEKSLVNKGILVQTRGTGASGSFKLS [L45E], -0.978 ± 0.46; that for VSKLITEALSVSQERVGMSLVALKKALAAAGYDVEKNNSRIKLSAKSLVNKGILVQTRGTGASGSFKLS [L45A], -0.643 ± 0.082. VSKLITEALSVSQERVGMSLVALKKALAAAGYDVEKNNSRIKLSRKSLVNKGILVQTRGTGASGSFKLS [L45R]: the abundance fitness was -0.915 ± 0.11.

As to VSKLITEALSVSQERVGMSLVALKKALAAAGYDVEKNNSRIKLSNKSLVNKGILVQTRGTGASGSFKLS [L45N], the abundance fitness is -0.897 ± 0.42. As for VSKLITEALSVSQERVGMSLVALKKALAAAGYDVEKNNSRIKLSVKSLVNKGILVQTRGTGASGSFKLS [L45V], the abundance fitness is -0.141 ± 0.11. The result for VSKLITEALSVSQERVGMSLVALKKALAAAGYDVEKNNSRIKLSSKSLVNKGILVQTRGTGASGSFKLS [L45S] reads -0.742 ± 0.046; that for VSKLITEALSVSQERVGMSLVALKKALAAAGYDVEKNNSRIKLSWKSLVNKGILVQTRGTGASGSFKLS [L45W], -0.125 ± 0.092. As for VSKLITEALSVSQERVGMSLVALKKALAAAGYDVEKNNSRIKLSKKSLVNKGILVQTRGTGASGSFKLS [L45K], the figure is -0.859 ± 0.15.

As for VSKLITEALSVSQERVGMSLVALKKALAAAGYDVEKNNSRIKLSIKSLVNKGILVQTRGTGASGSFKLS [L45I], the abundance fitness was -0.417 ± 0.28.
